We go through 2 molecules from article PMC2863070.

The assay concerns the target HSV-2 virion protein 22 (VP22), encoded by gene UL49 peptide on HLA-B*07:02 (human). In words: 51Cr release. The settings on record: chains alpha TCRAV38-2 CDR3:beta TCRBV5-1 CDR3.

B1: clone 9.30 (peptide)
chain 1: CAFGRGAQKLVF
chain 2: CATRIGWGTDTQYF
Consider B1, for which the EC50 of peptide came to 0.11 nM.

B2: clone 9.66 (peptide)
chain 1: CAFGRGAQKLVF
chain 2: CATRIGWGTDTQYF
For the molecule B2, the EC50 of peptide came out at 0.1 nM.
